Results reported in patent publication US20150344570A1 (published 2015).

T1: FcγRIIb (human, UniProt P31994 43-217)
T1 construct: extracellular domain; also called FcgRIIb; 2b
T1 sequence (looked up): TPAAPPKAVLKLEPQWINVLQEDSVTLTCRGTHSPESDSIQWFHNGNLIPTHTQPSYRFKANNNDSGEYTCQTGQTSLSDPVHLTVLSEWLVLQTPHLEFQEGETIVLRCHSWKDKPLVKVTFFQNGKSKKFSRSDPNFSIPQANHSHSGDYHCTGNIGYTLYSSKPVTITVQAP

T2: FcγRIIa H (human, UniProt P12318 34-217)
T2 construct: extracellular domain; also called FcgRIIa H; FcγRIIa type H
T2 sequence (looked up): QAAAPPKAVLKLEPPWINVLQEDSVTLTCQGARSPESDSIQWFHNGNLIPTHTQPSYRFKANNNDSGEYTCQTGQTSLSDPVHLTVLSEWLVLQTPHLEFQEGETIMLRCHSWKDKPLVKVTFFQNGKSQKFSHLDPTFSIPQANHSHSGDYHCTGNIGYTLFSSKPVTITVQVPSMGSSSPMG

T3: FcγRIIa H (FcγRIIa type H, His at position 131), extracellular domain with C-terminal His tag (human, UniProt P12318 34-217)
T3 construct: extracellular domain; also called FcgRIIa H; 2aH
T3 sequence (looked up): T2 sequence (looked up)

B1: GpH7-A5/GpH7-B3 variant S239_07I/GpL16-k0 (antibody, human IgG1, kappa)
heavy 1: not shown
heavy 2: not shown
light: DIVMTQSPLSLPVTPGEPASISCQASESLVHSNRNTYLHWYLQKPGQSPQLLIYKVSNRFSGVPDRFSGSGSGTDFTLKISRVEAEDVGVYYCSQNTHVPPTFGQGTKVEIERTVAAPSVFIFPPSDEQLKSGTASVVCLLNNFYPREAKVQWKVDNALQSGNSQESVTEQDSKDSTYSLSSTLTLSKADYEKHKVYACEVTHQGLSSPVTKSFNRGEC
notes: Heterodimerized antibody, alteration in one H chain only; also called He Ab S239I
B2: GpH7-A5/GpH7-B3 variant K326_08L/GpL16-k0 (antibody, human IgG1, kappa)
heavy 1: not shown
heavy 2: not shown
light: B1 light
notes: Heterodimerized antibody, alteration in one H chain only; also called He Ab K326L
B3: GpH7-A5/GpH7-B3 variant S239_18N/GpL16-k0 (antibody, human IgG1, kappa)
heavy 1: not shown
heavy 2: not shown
light: B1 light
notes: Heterodimerized antibody, alteration in one H chain only; also called He Ab S239N
B4: GpH7-A5/GpH7-B3 variant H268_20W/GpL16-k0 (antibody, human IgG1, kappa)
heavy 1: not shown
heavy 2: not shown
light: B1 light
notes: Heterodimerized antibody, alteration in one H chain only; also called He Ab H268W
B5: GpH7-A5/GpH7-B3 variant H268_05P/GpL16-k0 (antibody, human IgG1, kappa)
heavy 1: not shown
heavy 2: not shown
light: B1 light
notes: Heterodimerized antibody, alteration in one H chain only; also called He Ab H268P
B6: GpH7-A5/GpH7-B3 variant P271_09D/GpL16-k0 (antibody, human IgG1, kappa)
heavy 1: not shown
heavy 2: not shown
light: B1 light
notes: Heterodimerized antibody, alteration in one H chain only; also called He Ab P271D
B7: GpH7-A5/GpH7-B3 variant Y300_19Q/GpL16-k0 (antibody, human IgG1, kappa)
heavy 1: not shown
heavy 2: not shown
light: B1 light
notes: Heterodimerized antibody, alteration in one H chain only; also called He Ab Y300Q
B8: GpH7-A5/GpH7-B3 variant P238_15Y/GpL16-k0 (antibody, human IgG1, kappa)
heavy 1: not shown
heavy 2: not shown
light: B1 light
notes: Heterodimerized antibody, alteration in one H chain only; also called He Ab P238Y
B9: GpH7-A5/GpH7-B3 variant P238_08L/GpL16-k0 (antibody, human IgG1, kappa)
heavy 1: not shown
heavy 2: not shown
light: B1 light
notes: Heterodimerized antibody, alteration in one H chain only; also called He Ab P238L
B10: GpH7-A5/GpH7-B3 variant S267_03V/GpL16-k0 (antibody, human IgG1, kappa)
heavy 1: not shown
heavy 2: not shown
light: B1 light
notes: Heterodimerized antibody, alteration in one H chain only; also called He Ab S267V
B11: GpH7-A5/GpH7-B3 variant K326_03V/GpL16-k0 (antibody, human IgG1, kappa)
heavy 1: not shown
heavy 2: not shown
light: B1 light
notes: Heterodimerized antibody, alteration in one H chain only; also called He Ab K326V
B12: GpH7-A5/GpH7-B3 variant P238_16H/GpL16-k0 (antibody, human IgG1, kappa)
heavy 1: not shown
heavy 2: not shown
light: B1 light
notes: Heterodimerized antibody, alteration in one H chain only; also called He Ab P238H
B13: GpH7-A5/GpH7-B3 variant V266_06M/GpL16-k0 (antibody, human IgG1, kappa)
heavy 1: not shown
heavy 2: not shown
light: B1 light
notes: Heterodimerized antibody, alteration in one H chain only; also called He Ab V266M
B14: GpH7-A5/GpH7-B3 variant P271_10E/GpL16-k0 (antibody, human IgG1, kappa)
heavy 1: not shown
heavy 2: not shown
light: B1 light
notes: Heterodimerized antibody, alteration in one H chain only; also called He Ab P271E
B15: GpH7-A5/GpH7-B3 variant P238_09D/GpL16-k0 (antibody, human IgG1, kappa)
heavy 1: not shown
heavy 2: not shown
light: B1 light
notes: Heterodimerized antibody, alteration in one H chain only; also called He Ab P238D
B16: GpH7-A5/GpH7-B3 variant S267_14T/GpL16-k0 (antibody, human IgG1, kappa)
heavy 1: not shown
heavy 2: not shown
light: B1 light
notes: Heterodimerized antibody, alteration in one H chain only; also called He Ab S267T
B17: GpH7-A5/GpH7-B3 variant S267_01G/GpL16-k0 (antibody, human IgG1, kappa)
heavy 1: not shown
heavy 2: not shown
light: B1 light
notes: Heterodimerized antibody, alteration in one H chain only; also called He Ab S267G
B18: GpH7-A5/GpH7-B3 variant K326_05P/GpL16-k0 (antibody, human IgG1, kappa)
heavy 1: not shown
heavy 2: not shown
light: B1 light
notes: Heterodimerized antibody, alteration in one H chain only; also called He Ab K326P
B19: GpH7-A5/GpH7-B3 variant S298_06M/GpL16-k0 (antibody, human IgG1, kappa)
heavy 1: not shown
heavy 2: not shown
light: B1 light
notes: Heterodimerized antibody, alteration in one H chain only; also called He Ab S298M
B20: GpH7-A5/GpH7-B3 variant S298_08L/GpL16-k0 (antibody, human IgG1, kappa)
heavy 1: not shown
heavy 2: not shown
light: B1 light
notes: Heterodimerized antibody, alteration in one H chain only; also called He Ab S298L
B21: GpH7-B3 variant I332_02A/GpL16-k0 (antibody, human IgG1, kappa)
heavy: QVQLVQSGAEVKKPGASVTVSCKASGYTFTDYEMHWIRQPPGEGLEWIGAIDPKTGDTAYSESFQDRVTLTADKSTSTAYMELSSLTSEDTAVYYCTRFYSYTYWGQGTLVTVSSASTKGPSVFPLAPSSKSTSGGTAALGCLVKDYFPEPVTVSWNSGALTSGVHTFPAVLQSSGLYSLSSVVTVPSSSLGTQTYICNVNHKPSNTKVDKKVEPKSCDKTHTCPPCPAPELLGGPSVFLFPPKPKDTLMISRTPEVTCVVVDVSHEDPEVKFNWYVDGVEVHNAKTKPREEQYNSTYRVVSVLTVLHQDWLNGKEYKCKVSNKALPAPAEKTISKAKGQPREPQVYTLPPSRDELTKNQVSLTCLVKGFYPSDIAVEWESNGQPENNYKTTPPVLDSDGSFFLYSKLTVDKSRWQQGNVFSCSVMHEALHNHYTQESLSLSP
light: B1 light
notes: both H chains mutated; also called Ho Ab

Each binder was assayed against T1, FcγRIIb (assay: SPR (Biacore), antibody captured, FcγR analyte; binding relative to GpH7-A5/GpH7-B3/GpL16-k0 = 100).

Row | He/Con_2b | Binder
1 | 107 % of control | B1
2 | 177 % of control | B2
3 | 119 % of control | B3
4 | 111 % of control | B4
5 | 116 % of control | B5
6 | 120 % of control | B6
7 | 108 % of control | B7
8 | 218 % of control | B8
9 | 204 % of control | B9
10 | 192 % of control | B10
11 | 175 % of control | B11
12 | 115 % of control | B12
13 | 251 % of control | B13
14 | 109 % of control | B14
15 | 221 % of control | B15
16 | 104 % of control | B16
17 | 105 % of control | B17
18 | 126 % of control | B18
19 | 102 % of control | B19
20 | 108 % of control | B20

The binders below were run against T2, FcγRIIa H in the same assay as above.

Row | He/Con_2aH | Binder
21 | 91.5 % of control | B1
22 | 92.7 % of control | B2
23 | 94.2 % of control | B3
24 | 95.8 % of control | B4
25 | 81.8 % of control | B5
26 | 70.1 % of control | B6
27 | 96.1 % of control | B7
28 | 59.8 % of control | B8
29 | 84.6 % of control | B9
30 | 50.8 % of control | B10
31 | 97 % of control | B11
32 | 45.9 % of control | B12
33 | 83.9 % of control | B13
34 | 63.1 % of control | B14
35 | 87.5 % of control | B15
36 | 63.3 % of control | B16
37 | 71.3 % of control | B17
38 | 98.8 % of control | B18
39 | 98.1 % of control | B19
40 | 85 % of control | B20

What follows are binders tested against T3, FcγRIIa H (FcγRIIa type H, His at …) (assay: SPR Biacore, relative binding, GpH7-B3/GpL16-k0 (HoCon Ab)=100).
Description: Analysis of interaction between objective antibody and the FcγR was carried out using Biacore T100 (GE Healthcare). HBS-EP+ (GE Healthcare) was used as the running buffer, and the measurement temperature was set to 25° C. Chips produced by immobilizing the antigen peptide by the amine coupling method to a Series S Sencor Chip CM5 (GE Healthcare), or alternatively, chips produced by allowing preliminarily biotinylated antigen peptides to interact with and immobilize onto a Series S Sensor Chip SA (certified) (GE Healthcare) were used. Antibodies of interest were captured onto an antigen peptide-immobilized chip, and allowed to interact to each FcγR diluted with running buffer. To regenerate and repeatedly use the chip, the antibodies captured on the chip were washed off by reacting 10 mM glycine-HCl, pH 1.5.

Row | Ho/Con_2aH | Binder
41 | 119 % of control | B21
